Numbering of substitutions follows the chain as printed. Numbers in names are those of the source.
T1: Treponema denticola Cas2 (Treponema denticola, UniProt Q73QW4 1-101)
T1 chain: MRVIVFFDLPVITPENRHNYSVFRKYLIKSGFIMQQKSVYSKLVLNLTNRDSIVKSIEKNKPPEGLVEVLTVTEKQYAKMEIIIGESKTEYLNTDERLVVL

B1: Treponema denticola Cas2 (natural protein)
chain: T1 chain
notes: Cas2 of Treponema denticola, type II-A CRISPR-Cas system; gene amplified and cloned into a modified pET32a vector with a precession enzyme cleavage site; A GST-tagged Cas2 (pGEX-6p-1, GST removed) was also made; Dimer by the crystal structure; also called Td-Cas2; WT-Cas2; not shown: Trx, N-terminal, cleaved
B2: AcrVA5-L5A (natural protein)
chain: MKIEASGGYICYSIEEDEVTIDMVEVTTKRQGIGSQLIDMVKDVAREVGLPIGLYAYPQDDSISQEDLIEFYFSNDFEYDPDDVDGRLMRWS
B3: Moraxella bovoculi AcrVA5 (natural protein)
chain: B2 chain with A5L
modifications: C-terminal His-tag left out; the vector-derived PLGS of 6IUF is dropped, so entity number = AcrVA5 number + 4

Assays:
[1] = target: the molecule itself; experiment: crystal structure; Cas2 with peptide at molar ratio 1:1.2, hanging drop, 15% PEG3350, 10% glycerol, 0.1 M Tris pH 6.4; 2.0 Å
Treponema denticola Cas2 [2] = target: T1, Treponema denticola Cas2; experiment: ITC
[3] = target: Treponema denticola Cas2 (Treponema denticola) (UniProt Q73QW4); experiment: ITC; AcrVA5 (400 µM) injected into 50 µM Cas2 in the sample cell, 25 °C, 20 mM Tris pH 7.4, 200 mM NaCl; also AcrVA5 mutants and AcrVA5 peptides with Cas2
Treponema denticola Cas2 [4] = target: B1; experiment: as above; conditions: both partners purified

B1
stoichiometry N [1]: 2

B2
Kd (Treponema denticola Cas2 [2]): 1060 nM
Kd [3]: 1300 nM

B3
Ka (Treponema denticola Cas2 [4]): 939000 M⁻¹
Kd (Treponema denticola Cas2 [4]): 1100 nM
dH (Treponema denticola Cas2 [4]): 4.23 ± 0.165 kcal/mol
stoichiometry N (Treponema denticola Cas2 [4]): 0.596 ± 0.0158
